T1: Human Notch4-NRR domain Fc fusion protein (human, UniProt Q99466 1046-1445, limits assumed)
T1 construct: Expressed in a CHO cell line, used from culture supernatant; 1 is named; also called Human Notch4-NRR Fusion Protein; not shown: Fc
T1 sequence: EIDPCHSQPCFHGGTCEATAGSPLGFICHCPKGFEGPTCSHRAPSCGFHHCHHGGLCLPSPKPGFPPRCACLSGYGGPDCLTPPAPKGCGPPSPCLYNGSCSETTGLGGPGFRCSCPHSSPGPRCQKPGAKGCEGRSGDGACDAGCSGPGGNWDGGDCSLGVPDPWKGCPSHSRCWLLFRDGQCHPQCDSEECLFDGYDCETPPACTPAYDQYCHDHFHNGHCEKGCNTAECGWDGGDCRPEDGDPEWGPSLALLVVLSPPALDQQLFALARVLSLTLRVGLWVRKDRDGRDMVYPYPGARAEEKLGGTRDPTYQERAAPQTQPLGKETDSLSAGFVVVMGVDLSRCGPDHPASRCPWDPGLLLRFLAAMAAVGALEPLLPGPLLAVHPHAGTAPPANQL


Key:
[1] = target: T1, Human Notch4-NRR domain Fc fusion …; experiment: SPR (Biacore) as for Table 30; Notch4-NRR-Fc captured, antibody injected; averaged, N=5
Method: (§1) Kinetic analysis of further anti-Notch4 inhibitory humanized antibodies was carried out as follows. Human Notch4-NRR domain Fc fusion proteins were expressed with a CHO cell line. The antigen in the culture supernatant was captured by the anti-human Notch4 antibody fixed on a CM5 sensor chip that recognizes different epitopes of human Notch4. The humanized anti-human Notch4 antibody was then injected onto the sensor chip at various concentrations. The interaction and disassociation constants thereof were calculated according to manufacturer's instructions.

[2] = target: Notch4 with a part of the intracellular domain substituted with GAL4 DNA binding domain, on b.end3 reporter …; experiment: cell-based or functional assay
[3] = target: T1, Human Notch4-NRR domain Fc fusion …; experiment: SPR (Biacore); Notch4-NRR-Fc captured by another anti-Notch4 antibody on CM5, antibody injected
Method: as §1

[4] = target: T1, Human Notch4-NRR domain Fc fusion …; experiment: SPR (Biacore) as for Table 30; Notch4-NRR-Fc captured, antibody injected; averaged, N=3
Method: as §1

| Kd [1] | koff [1] | kon [1] | % of Control (relative luminescence), Notch4-GAL4 luciferase reporter assay, antibody at 10 µg/ml [2] | Kd [3] | koff [3] | kon [3] | Kd [4] | koff [4] | kon [4] | Binder |
| --- | --- | --- | --- | --- | --- | --- | --- | --- | --- | --- |
| 0.715 nM | 0.00127 s⁻¹ | 1.81e+06 M⁻¹ s⁻¹ | -9.9 % of Control | 0.556 nM | 0.00106 s⁻¹ | 1.91e+06 M⁻¹ s⁻¹ |  |  |  | Antibody C (antibody, human IgG2, kappa, Humanized IgG2 (V234A, G237A)/κ; also called HK2L4 (Lys-); HK2L4(Lys-)) heavy: EVQLVESGGGLVQPGGSLRLSCAASGFTFSSYGMSWVRQAPGKGLELVSTINSNGGRTYYPDSVKGRFTISRDNSKNTLYLQMGSLRAEDMAVYYCARDQGFAYWGQGTLVTVSSASTKGPSVFPLAPCSRSTSESTAALGCLVKDYFPEPVTVSWNSGALTSGVHTFPAVLQSSGLYSLSSVVTVPSSNFGTQTYTCNVDHKPSNTKVDKTVERKCCVECPPCPAPPAAAPSVFLFPPKPKDTLMISRTPEVTCVVVDVSHEDPEVQFNWYVDGVEVHNAKTKPREEQFNSTFRVVSVLTVVHQDWLNGKEYKCKVSNKGLPAPIEKTISKTKGQPREPQVYTLPPSREEMTKNQVSLTCLVKGFYPSDIAVEWESNGQPENNYKTTPPMLDSDGSFFLYSKLTVDKSRWQQGNVFSCSVMHEALHNHYTQKSLSLSPG light: not shown |
| 0.529 nM | 0.00109 s⁻¹ | 2.1e+06 M⁻¹ s⁻¹ | 21 % of Control | 0.475 nM | 0.000863 s⁻¹ | 1.82e+06 M⁻¹ s⁻¹ |  |  |  | Antibody D (antibody, human IgG2, kappa, Humanized IgG2 (V234A, G237A)/κ; also called HK3L5 (Lys-); HK3L5(Lys-)) heavy: EVQLVESGGGLVQPGGSLRLSCAASGFTFSSYGMSWVRQAPGKGLELVATINSNGGRTYYPDSVKGRFTISRDNSKNTLYLQMGSLKAEDMAVYYCARDQGFAYWGQGTLVTVSSASTKGPSVFPLAPCSRSTSESTAALGCLVKDYFPEPVTVSWNSGALTSGVHTFPAVLQSSGLYSLSSVVTVPSSNFGTQTYTCNVDHKPSNTKVDKTVERKCCVECPPCPAPPAAAPSVFLFPPKPKDTLMISRTPEVTCVVVDVSHEDPEVQFNWYVDGVEVHNAKTKPREEQFNSTFRVVSVLTVVHQDWLNGKEYKCKVSNKGLPAPIEKTISKTKGQPREPQVYTLPPSREEMTKNQVSLTCLVKGFYPSDIAVEWESNGQPENNYKTTPPMLDSDGSFFLYSKLTVDKSRWQQGNVFSCSVMHEALHNHYTQKSLSLSPG light: DIQMTQSPSSLSASVGDRVTITCKASQDVGTAVAWYQQKPGKSPKLLIYWASTRHTGVPSRFSGSGSGTDFTLTISSLQPEDVATYFCQQYSSYPWTFGQGTKVEIKRTVAAPSVFIFPPSDEQLKSGTASVVCLLNNFYPREAKVQWKVDNALQSGNSQESVTEQDSKDSTYSLSSTLTLSKADYEKHKVYACEVTHQGLSSPVTKSFNRGEC |
| 0.76 nM | 0.00124 s⁻¹ | 1.86e+06 M⁻¹ s⁻¹ | 13 % of Control | 0.633 nM | 0.00111 s⁻¹ | 1.78e+06 M⁻¹ s⁻¹ |  |  |  | Antibody G (antibody, human IgG2, kappa, Humanized IgG2 (V234A, G237A)/κ; also called HK3L4 (Lys-); HK3L4(Lys-)) heavy: EVQLVESGGGLVQPGGSLRLSCAASGFTFSSYGMSWVRQAPGKGLELVATINSNGGRTYYPDSVKGRFTISRDNSKNTLYLQMGSLKAEDMAVYYCARDQGFAYWGQGTLVTVSSASTKGPSVFPLAPCSRSTSESTAALGCLVKDYFPEPVTVSWNSGALTSGVHTFPAVLQSSGLYSLSSVVTVPSSNFGTQTYTCNVDHKPSNTKVDKTVERKCCVECPPCPAPPAAAPSVFLFPPKPKDTLMISRTPEVTCVVVDVSHEDPEVQFNWYVDGVEVHNAKTKPREEQFNSTFRVVSVLTVVHQDWLNGKEYKCKVSNKGLPAPIEKTISKTKGQPREPQVYTLPPSREEMTKNQVSLTCLVKGFYPSDIAVEWESNGQPENNYKTTPPMLDSDGSFFLYSKLTVDKSRWQQGNVFSCSVMHEALHNHYTQKSLSLSPG light: not shown |
|  |  |  | 5 % of Control | 0.519 nM | 0.00115 s⁻¹ | 2.23e+06 M⁻¹ s⁻¹ | 0.62 nM | 0.00115 s⁻¹ | 1.87e+06 M⁻¹ s⁻¹ | Antibody E (antibody, human IgG2, kappa, V domains shown, Humanized IgG2 (V234A, G237A)/κ; also called HK2L6 (Lys-); HK2L6(Lys-)) VH: EVQLVESGGGLVQPGGSLRLSCAASGFTFSSYGMSWVRQAPGKGLELVSTINSNGGRTYYPDSVKGRFTISRDNSKNTLYLQMGSLRAEDMAVYYCARDQGFAYWGQGTLVTVSS VL: EIVMTQSPATLSVSPGERATLSCKASQDVGTAVAWYQQKPGQSPRLLIYWASTRHTGIPARFSGSGSGTEFTLTISSLQSEDFAVYFCQQYSSYPWTFGQGTKVEIKR |

From patent US20170096493A1 (EISAI R AND D MANAGEMENT, published 2017)
